# Columns and labels:
# [1] = tested on: CC(C)C[C@H](N)C(=O)Nc1ccc([N+](=O)[O-])cc1; assay: purified protein, by the assay type; settings: other: Tris-Cl pH 8.0, 37° C., measured by same experiment, Lineweaver-Burk plot
# Method: (§1) Precisely, 1 U of enzyme activity defines the enzyme quantity changing 1 absorbance at 405 nm which is measured by the process adding aminopeptidase in 1 ml solution of 100M Tris-Cl (pH 8.0) and 2 mM leucine-p-nitroanilide (Sigma, USA), incubating at 37° C. for 1 min, then adding 100 μl of 70% acetic acid to stop the reaction. At that time leucine-p-nitroanilide was dissolved in dimethylsulfoxide (DMSO) to make 100 mM solution.
# (§2) In order to compare substrate specificity of aminopeptidase of this invention, 2 kinds of substrate were used. In detail, one was synthetic substrates of p-nitroanilide derivative and purchased from Sigma, USA and the other was oligopeptide such as methionyl oligopeptide of SEQ. ID. NO: 1 which have amino acid sequence similar to N-terminus of methionyl HGH and leucyl oligopeptide of SEQ. ID. NO: 2.
# (§3) Enzyme reaction of aminopeptidase was performed by the process described in Reference Examples. At that time p-nitroanilide derivative was used as synthetic substrate. Leucine p-nitroanilide was used as substrate to perform the reaction in concentration of 0.03125, 0.0625, 0.125, 0.25, 0.5, 1 mM and methionine p-nitroanilide in 0.125, 0.25, 0.5, 1 mM and aminopeptidase in 0.5 U respectively. Above reactions using leucine-p-nitroanilide proceeded for 2 min and methionine-p-nitroanilide for 40 min. Then 70% acetic acid was added to stop the reactions and absorbance at 405 nm was measured. The product concentration was measured by adopting absorbance constant ε405=9450M^−1 cm^−1.
# (§4) In reaction condition mentioned above, initial velocity of enzyme reaction was measured with varying the substrate concentration. Lineweaver-Burk plot was used to determine Km value and Maximum reaction velocity of aminopeptidase from Bacillus licheniformis. In addition kcat and kcat/Km was determined by using Km value and maximum reaction velocity described above.
# [2] = tested on: CSCC[C@H](N)C(=O)Nc1ccc([N+](=O)[O-])cc1; assay: purified protein, by the assay type; settings: other: Tris-Cl pH 8.0, 37° C., measured by same experiment, Lineweaver-Burk plot
# Method: as §1, §2, §3, §4
substance,measurement,setting,value
Aeromonas proteolytica (Vibrio proteolytica) aminopeptidase (Vibrio proteolyticus),Km,[1],240 µM
same,kcat,[1],48 s⁻¹
same,kcat/Km,[1],200000 M⁻¹ s⁻¹
same,Km,[2],942 µM
same,kcat,[2],2.64 s⁻¹
same,kcat/Km,[2],2800 M⁻¹ s⁻¹

# Source: patent publication US6428997B1, “Aminopeptidase derived from Bacillus licheniformis and process for preparation of natural type proteins” (LG Chemical Ltd., priority 1997, dated 2002)
